# Experimental data: PMC5503811
# Assays:
# ALDH7A1 G255D (human) = test: AUC
# [1] = biological target: wild-type human aldehyde dehydrogenase 7A1 (human); test: AUC
substance,measurement,setting,value
ALDH7A1 G255D (enzyme),Ka,ALDH7A1 G255D (human),750000 M⁻¹
wild-type human aldehyde dehydrogenase 7A1 (enzyme),stoichiometry N,[1],4
